Data published in paper PMC2698047.
Where two headings read alike, the source gives them in different places.

Legend:
Experiment in all cases: competition
[1] = biological target: T1, TP0262 (TpCRP, CRP homolog) (Treponema pallidum subsp. pallidum, UniProt O83286 1-224)
T1 sequence: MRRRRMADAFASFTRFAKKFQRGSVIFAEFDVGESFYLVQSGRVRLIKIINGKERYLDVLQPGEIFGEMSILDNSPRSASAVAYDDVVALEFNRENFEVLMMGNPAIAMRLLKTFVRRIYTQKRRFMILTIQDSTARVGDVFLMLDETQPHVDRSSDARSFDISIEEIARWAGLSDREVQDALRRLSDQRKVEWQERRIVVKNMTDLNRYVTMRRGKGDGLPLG

[2] = biological target: T1, TP0262 (TpCRP, CRP homolog); remark: listed apart in the source
E. coli CRP = E. coli CRP (Escherichia coli K12 MG1655, UniProt P0ACJ8 1-210)
Chain of E. coli CRP (P0ACJ8 whole entry): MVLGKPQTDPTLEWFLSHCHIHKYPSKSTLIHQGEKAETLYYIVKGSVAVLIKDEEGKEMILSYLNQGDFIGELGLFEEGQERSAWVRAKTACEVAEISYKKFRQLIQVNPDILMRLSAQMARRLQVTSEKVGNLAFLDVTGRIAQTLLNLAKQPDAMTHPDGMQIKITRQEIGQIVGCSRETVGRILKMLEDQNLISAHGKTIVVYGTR

[3] = biological target: T1, TP0262 (TpCRP, CRP homolog); remark: listed apart in the source

B1: tprG competitor oligo (dsDNA)
DNA 1: GTCAGTGCTAGCAGTCACATAC
DNA 2: GTATGTGACTGCTAGCACTGAC
- binding result [1]: binds

B2: tprJ competitor oligo (dsDNA)
DNA 1: GTTGTCAGTGCACGAGGAGGAG
DNA 2: CTCCTCCTCGTGCACTGACAAC
- binding result [2]: binds

B3: lac competitor oligo (E. coli CRP site) (dsDNA)
DNA 1: AAATGTGATCTAGATCACATTT
DNA 2: AAATGTGATCTAGATCACATTT
- binding result (E. coli CRP): binds

B4: tprE competitor oligo (dsDNA)
DNA 1: TGCGTGTGTGTGTGGGCTCGTGCTG
DNA 2: CAGCACGAGCCCACACACACACGCA
- binding result [3]: binds
